Data as given in patent US20250352667A1.

Key:
[1] = target: KEAP1 (wild-type full-length), His-tagged (human) (UniProt Q14145); experiment: AlphaScreen; 38.4 nM FLAG-NRF2, 150 nM His-KEAP1; Repeat 2 (same value as in Table 22)
[2] = target: KEAP1 (wild-type full-length), His-tagged (human) (UniProt Q14145); experiment: AlphaScreen; 19.2 nM FLAG-NRF2, 150 nM His-KEAP1; Repeat 1 (same value as in Table 22)
[3] = target: KEAP1 (wild-type full-length), His-tagged (human) (UniProt Q14145); experiment: AlphaScreen; 9.6 nM FLAG-NRF2, 150 nM His-KEAP1; Repeat 1 (same value as in Table 22)
[4] = target: KEAP1 (wild-type full-length), His-tagged (human) (UniProt Q14145); experiment: AlphaScreen, all variants on one plate; lower condition (9.6 nM NRF2), KEAP1 150 nM; the reference itself
[5] = target: KEAP1 (wild-type full-length), His-tagged (human) (UniProt Q14145); experiment: AlphaScreen, all variants on one plate; average of three conditions, KEAP1 150 nM; the reference itself
[6] = target: KEAP1 (wild-type full-length), His-tagged (human) (UniProt Q14145); experiment: AlphaScreen; 38.4 nM FLAG-NRF2, 150 nM His-KEAP1; Repeat 1 (same value as in Table 22)
[7] = target: KEAP1 (wild-type full-length), His-tagged (human) (UniProt Q14145); experiment: AlphaScreen; 19.2 nM FLAG-NRF2, 150 nM His-KEAP1; Repeat 2 (same value as in Table 22)
[8] = target: KEAP1 (wild-type full-length), His-tagged (human) (UniProt Q14145); experiment: AlphaScreen; 19.2 nM FLAG-NRF2, 150 nM His-KEAP1 (same value as in Table 22)
[9] = target: KEAP1 (wild-type full-length), His-tagged (human) (UniProt Q14145); experiment: AlphaScreen; 19.2 nM FLAG-NRF2, 150 nM His-KEAP1; wild type set to 100%
[10] = target: KEAP1 (wild-type full-length), His-tagged (human) (UniProt Q14145); experiment: AlphaScreen; 38.4 nM FLAG-NRF2, 150 nM His-KEAP1; wild type set to 100%
[11] = target: KEAP1 (wild-type full-length), His-tagged (human) (UniProt Q14145); experiment: AlphaScreen, all variants on one plate; upper condition (38.4 nM NRF2), KEAP1 150 nM; the reference itself
[12] = target: KEAP1 (wild-type full-length), His-tagged (human) (UniProt Q14145); experiment: AlphaScreen; 38.4 nM FLAG-NRF2, 150 nM His-KEAP1 (same value as in Table 22)
[13] = target: KEAP1 (wild-type full-length), His-tagged (human) (UniProt Q14145); experiment: AlphaScreen; 2.4 nM FLAG-NRF2, 150 nM His-KEAP1; Rep 1
[14] = target: KEAP1 (wild-type full-length), His-tagged (human) (UniProt Q14145); experiment: AlphaScreen; 9.6 nM FLAG-NRF2, 150 nM His-KEAP1; wild type set to 100%
[15] = target: KEAP1 (wild-type full-length), His-tagged (human) (UniProt Q14145); experiment: AlphaScreen; 9.6 nM FLAG-NRF2, 150 nM His-KEAP1; Repeat 2 (same value as in Table 22)
[16] = target: KEAP1 (wild-type full-length), His-tagged (human) (UniProt Q14145); experiment: AlphaScreen, all variants on one plate; average of three conditions ± standard deviation, KEAP1 150 nM; relative to NRF2 (WT) isoform 2
[17] = target: KEAP1 (wild-type full-length), His-tagged (human) (UniProt Q14145); experiment: AlphaScreen; 38.4 nM FLAG-NRF2, 150 nM His-KEAP1; against wild-type NRF2 isoform 2 = 100%
[18] = target: KEAP1 (wild-type full-length), His-tagged (human) (UniProt Q14145); experiment: AlphaScreen; 9.6 nM FLAG-NRF2, 150 nM His-KEAP1 (same value as in Table 23)
[19] = target: KEAP1 (wild-type full-length), His-tagged (human) (UniProt Q14145); experiment: AlphaScreen; standard deviation of three conditions; against wild-type NRF2 isoform 2
[20] = target: KEAP1 (wild-type full-length), His-tagged (human) (UniProt Q14145); experiment: AlphaScreen; mean over 9.6, 19.2 and 38.4 nM NRF2; 150 nM His-KEAP1; against wild-type NRF2 isoform 2 = 100%
[21] = target: KEAP1 (wild-type full-length), His-tagged (human) (UniProt Q14145); experiment: AlphaScreen; 38.4 nM FLAG-NRF2, 150 nM His-KEAP1; Repeat 2 (same value as in Table 23)
[22] = target: KEAP1 (wild-type full-length), His-tagged (human) (UniProt Q14145); experiment: AlphaScreen, all variants on one plate; optimal condition (19.2 nM NRF2), KEAP1 150 nM; relative to NRF2 (WT) isoform 2
[23] = target: KEAP1 (wild-type full-length), His-tagged (human) (UniProt Q14145); experiment: AlphaScreen; 38.4 nM FLAG-NRF2, 150 nM His-KEAP1 (same value as in Table 23)
[24] = target: KEAP1 (wild-type full-length), His-tagged (human) (UniProt Q14145); experiment: AlphaScreen; 9.6 nM FLAG-NRF2, 150 nM His-KEAP1; against wild-type NRF2 isoform 2 = 100%
[25] = target: KEAP1 (wild-type full-length), His-tagged (human) (UniProt Q14145); experiment: AlphaScreen, all variants on one plate; upper condition (38.4 nM NRF2), KEAP1 150 nM; relative to NRF2 (WT) isoform 2
[26] = target: KEAP1 (wild-type full-length), His-tagged (human) (UniProt Q14145); experiment: AlphaScreen; 19.2 nM FLAG-NRF2, 150 nM His-KEAP1; Repeat 2 (same value as in Table 23)
[27] = target: KEAP1 (wild-type full-length), His-tagged (human) (UniProt Q14145); experiment: AlphaScreen; mean over 9.6, 19.2 and 38.4 nM NRF2; 150 nM His-KEAP1; against wild-type NRF2 isoform 2

Chain of KEAP1 (wild-type full-length), His-tagged (human) (Q14145 2-624 limits assumed, form in doubt): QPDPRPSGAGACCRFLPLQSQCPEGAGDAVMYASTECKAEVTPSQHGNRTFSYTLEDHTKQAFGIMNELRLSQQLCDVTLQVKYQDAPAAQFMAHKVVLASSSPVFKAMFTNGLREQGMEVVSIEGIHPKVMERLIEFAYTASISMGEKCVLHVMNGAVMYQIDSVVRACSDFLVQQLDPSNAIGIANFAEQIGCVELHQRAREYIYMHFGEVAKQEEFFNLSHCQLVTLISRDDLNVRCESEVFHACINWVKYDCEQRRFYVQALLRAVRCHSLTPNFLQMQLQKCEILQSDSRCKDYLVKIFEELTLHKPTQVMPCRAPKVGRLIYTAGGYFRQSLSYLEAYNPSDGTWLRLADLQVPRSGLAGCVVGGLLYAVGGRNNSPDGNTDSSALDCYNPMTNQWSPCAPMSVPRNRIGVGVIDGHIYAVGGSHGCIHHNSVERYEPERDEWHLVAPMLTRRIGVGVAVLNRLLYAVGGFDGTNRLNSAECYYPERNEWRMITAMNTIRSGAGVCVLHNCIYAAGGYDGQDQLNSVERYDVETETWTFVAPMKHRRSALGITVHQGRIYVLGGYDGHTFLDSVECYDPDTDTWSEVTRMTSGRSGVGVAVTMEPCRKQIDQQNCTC

In the case of “NRF2 isoform 2 (wild-type full-length), FLAG-tagged”, the A-counts [1] is reported as 3460 A-counts, the A-counts [2] is reported as 3480 A-counts and the A-counts [3] is reported as 2310 A-counts. For the same substance, the % Disruption in Binding [4] was 0%, the % Disruption in Binding (Reported Values) [5] was 0% and the A-counts [6] was 3470 A-counts. For the same substance, the A-counts [7] was 3260 A-counts, the S/N [8] was 4.2 and the Binding Percentage (%) [9] was 100%. For the same substance, the Binding Percentage (%) [10] was 100%, the % Disruption in Binding [11] was 0% and the S/N [12] was 3.4. For the same substance, the A-counts [13] was 1130 A-counts, the Binding Percentage (%) [14] was 100% and the A-counts [15] was 2590 A-counts.
“NRF2 isoform 2 (E63G/E66G full-length), FLAG-tagged” showed a % Disruption in Binding (Reported Values) [16] of 61.7%, a Binding Percentage (%) [17] of 37.8% and a S/N [18] of 1.8. The Reported Value (standard deviation of reduction in binding) [19] was 10.2%, the Average Binding [20] was 30.9% and the A-counts [21] was 1960 A-counts. For the same substance, the % Disruption in Binding [22] was 59.7%, the A-counts [13] was 1080 A-counts and the S/N [23] was 1.8. The Binding Percentage (%) [24] was 35.7%, the % Disruption in Binding [25] was 61.9% and the A-counts [26] was 1950 A-counts. The Avg. Reduction in Binding [27] was 69.1%.
